The values below are quoted from earlier work in article PMC6685676.

pKi: −log10 of the molar value. Read-outs that look alike come from different tables or passages of the source.

The target of series [1] is angiotensin III (Homo sapiens) (UniProt P01019).
For series [2] the target is unchanged. This is another data set of the same source.

UniProt P01019, sequence (P01019 whole entry, looked up): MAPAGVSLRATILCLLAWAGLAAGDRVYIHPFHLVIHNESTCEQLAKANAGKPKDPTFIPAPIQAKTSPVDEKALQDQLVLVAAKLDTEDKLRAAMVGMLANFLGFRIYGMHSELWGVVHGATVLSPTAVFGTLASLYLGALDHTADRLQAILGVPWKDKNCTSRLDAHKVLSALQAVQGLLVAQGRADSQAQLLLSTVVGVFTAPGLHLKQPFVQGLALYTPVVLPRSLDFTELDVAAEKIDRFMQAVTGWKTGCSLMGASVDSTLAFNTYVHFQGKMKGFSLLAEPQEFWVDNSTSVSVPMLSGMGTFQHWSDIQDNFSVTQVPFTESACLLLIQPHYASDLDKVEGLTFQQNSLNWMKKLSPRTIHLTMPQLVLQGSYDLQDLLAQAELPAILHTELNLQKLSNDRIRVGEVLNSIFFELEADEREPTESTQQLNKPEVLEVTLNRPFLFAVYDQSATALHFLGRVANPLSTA

The term pKi denotes the negative decadic logarithm of the Ki, by convention in mol/L. Turning to DPP3 (from UniProt O55096), in series [1], the negative-log Ki (pKi) is 7.62.

Consider DPP3 (from UniProt Q9NY33), for which the pKi in series [2] is 7.06.
